Measured values reported in US12630600B2 (MEDIMMUNE LIMITED, priority 2022, dated 2026).
Starred links: 1 amine or outer side, 2 acyl side, 3 side chain; linkers in the order of their positions; H or OH if unused. Non-standard residues stand in square brackets, D forms with d. Groups on a side chain read outwards from the residue. No end group written: not given here. *: point of attachment. C20 diacid = O=C(O)CCCCCCCCCCCCCCCCCCC(=O)*; C18 diacid = O=C(O)CCCCCCCCCCCCCCCCC(=O)*; γGlu = O=C(O)[C@H](CCC(=O)[*:2])N[*:1]; αMeF = C[C@](N)(Cc1ccccc1)C(=O)O; AEEA = NCCOCCOCC(=O)O; Aib = CC(C)(N)C(=O)O

B1: Peptide 454 (peptide)
peptide: H[Aib]QGTFTSDVSK[αMeF]LDKK([AEEA-AEEA-γGlu-C20 diacid])RAQDFVRWLEA[Aib]G-NH2
modifications: N-terminus assumed
SMILES: CC(C)C[C@H](NC(=O)[C@H](Cc1c[nH]c2ccccc12)NC(=O)[C@H](CCCNC(=N)N)NC(=O)[C@@H](NC(=O)[C@H](Cc1ccccc1)NC(=O)[C@H](CC(=O)O)NC(=O)[C@H](CCC(N)=O)NC(=O)[C@H](C)NC(=O)[C@H](CCCNC(=N)N)NC(=O)[C@H](CCCCNC(=O)COCCOCCNC(=O)COCCOCCNC(=O)CC[C@H](NC(=O)CCCCCCCCCCCCCCCCCCC(=O)O)C(=O)O)NC(=O)[C@H](CCCCN)NC(=O)[C@H](CC(=O)O)NC(=O)[C@H](CC(C)C)NC(=O)[C@](C)(Cc1ccccc1)NC(=O)[C@H](CCCCN)NC(=O)[C@H](CO)NC(=O)[C@@H](NC(=O)[C@H](CC(=O)O)NC(=O)[C@H](CO)NC(=O)[C@@H](NC(=O)[C@H](Cc1ccccc1)NC(=O)[C@@H](NC(=O)CNC(=O)[C@H](CCC(N)=O)NC(=O)C(C)(C)NC(=O)[C@@H](N)Cc1c[nH]cn1)[C@@H](C)O)[C@@H](C)O)C(C)C)C(C)C)C(=O)N[C@@H](CCC(=O)O)C(=O)N[C@@H](C)C(=O)NC(C)(C)C(=O)NCC(N)=O
B2: Peptide 455 (peptide)
peptide: H[Aib]QGTFTSDVSK[αMeF]LDKK([AEEA-AEEA-γGlu-γGlu-C20 diacid])RAQDFVRWLL[Aib]E-NH2
modifications: N-terminus assumed
SMILES: CC(C)C[C@H](NC(=O)[C@H](Cc1c[nH]c2ccccc12)NC(=O)[C@H](CCCNC(=N)N)NC(=O)[C@@H](NC(=O)[C@H](Cc1ccccc1)NC(=O)[C@H](CC(=O)O)NC(=O)[C@H](CCC(N)=O)NC(=O)[C@H](C)NC(=O)[C@H](CCCNC(=N)N)NC(=O)[C@H](CCCCNC(=O)COCCOCCNC(=O)COCCOCCNC(=O)CC[C@H](NC(=O)CC[C@H](NC(=O)CCCCCCCCCCCCCCCCCCC(=O)O)C(=O)O)C(=O)O)NC(=O)[C@H](CCCCN)NC(=O)[C@H](CC(=O)O)NC(=O)[C@H](CC(C)C)NC(=O)[C@](C)(Cc1ccccc1)NC(=O)[C@H](CCCCN)NC(=O)[C@H](CO)NC(=O)[C@@H](NC(=O)[C@H](CC(=O)O)NC(=O)[C@H](CO)NC(=O)[C@@H](NC(=O)[C@H](Cc1ccccc1)NC(=O)[C@@H](NC(=O)CNC(=O)[C@H](CCC(N)=O)NC(=O)C(C)(C)NC(=O)[C@@H](N)Cc1c[nH]cn1)[C@@H](C)O)[C@@H](C)O)C(C)C)C(C)C)C(=O)N[C@@H](CC(C)C)C(=O)NC(C)(C)C(=O)N[C@@H](CCC(=O)O)C(N)=O
B3: Peptide 456 (peptide)
peptide: H[Aib]QGTFTSDVSK[αMeF]LDRK([AEEA-AEEA-γGlu-C20 diacid])RAQDFVRWLL[Aib]E-NH2
modifications: N-terminus assumed
SMILES: CC(C)C[C@H](NC(=O)[C@H](Cc1c[nH]c2ccccc12)NC(=O)[C@H](CCCNC(=N)N)NC(=O)[C@@H](NC(=O)[C@H](Cc1ccccc1)NC(=O)[C@H](CC(=O)O)NC(=O)[C@H](CCC(N)=O)NC(=O)[C@H](C)NC(=O)[C@H](CCCNC(=N)N)NC(=O)[C@H](CCCCNC(=O)COCCOCCNC(=O)COCCOCCNC(=O)CC[C@H](NC(=O)CCCCCCCCCCCCCCCCCCC(=O)O)C(=O)O)NC(=O)[C@H](CCCNC(=N)N)NC(=O)[C@H](CC(=O)O)NC(=O)[C@H](CC(C)C)NC(=O)[C@](C)(Cc1ccccc1)NC(=O)[C@H](CCCCN)NC(=O)[C@H](CO)NC(=O)[C@@H](NC(=O)[C@H](CC(=O)O)NC(=O)[C@H](CO)NC(=O)[C@@H](NC(=O)[C@H](Cc1ccccc1)NC(=O)[C@@H](NC(=O)CNC(=O)[C@H](CCC(N)=O)NC(=O)C(C)(C)NC(=O)[C@@H](N)Cc1c[nH]cn1)[C@@H](C)O)[C@@H](C)O)C(C)C)C(C)C)C(=O)N[C@@H](CC(C)C)C(=O)NC(C)(C)C(=O)N[C@@H](CCC(=O)O)C(N)=O
B4: Peptide 462 (peptide)
peptide: H[Aib]QGTFTSDVSK[αMeF]LDTK([AEEA-AEEA-γGlu-C18 diacid])RARDFVQWLLEAG-OH
modifications: N-terminus assumed
SMILES: CC(C)C[C@H](NC(=O)[C@H](CC(C)C)NC(=O)[C@H](Cc1c[nH]c2ccccc12)NC(=O)[C@H](CCC(N)=O)NC(=O)[C@@H](NC(=O)[C@H](Cc1ccccc1)NC(=O)[C@H](CC(=O)O)NC(=O)[C@H](CCCNC(=N)N)NC(=O)[C@H](C)NC(=O)[C@H](CCCNC(=N)N)NC(=O)[C@H](CCCCNC(=O)COCCOCCNC(=O)COCCOCCNC(=O)CC[C@H](NC(=O)CCCCCCCCCCCCCCCCC(=O)O)C(=O)O)NC(=O)[C@@H](NC(=O)[C@H](CC(=O)O)NC(=O)[C@H](CC(C)C)NC(=O)[C@](C)(Cc1ccccc1)NC(=O)[C@H](CCCCN)NC(=O)[C@H](CO)NC(=O)[C@@H](NC(=O)[C@H](CC(=O)O)NC(=O)[C@H](CO)NC(=O)[C@@H](NC(=O)[C@H](Cc1ccccc1)NC(=O)[C@@H](NC(=O)CNC(=O)[C@H](CCC(N)=O)NC(=O)C(C)(C)NC(=O)[C@@H](N)Cc1c[nH]cn1)[C@@H](C)O)[C@@H](C)O)C(C)C)[C@@H](C)O)C(C)C)C(=O)N[C@@H](CCC(=O)O)C(=O)N[C@@H](C)C(=O)NCC(=O)O
B5: Peptide 465 (peptide)
peptide: H[Aib]QGTFTSDVSK[αMeF]LDLK([AEEA-AEEA-γGlu-γGlu-C18 diacid])RAQDFVQWLL[Aib]T-OH
modifications: N-terminus assumed
SMILES: CC(C)C[C@H](NC(=O)[C@H](CC(=O)O)NC(=O)[C@H](CC(C)C)NC(=O)[C@](C)(Cc1ccccc1)NC(=O)[C@H](CCCCN)NC(=O)[C@H](CO)NC(=O)[C@@H](NC(=O)[C@H](CC(=O)O)NC(=O)[C@H](CO)NC(=O)[C@@H](NC(=O)[C@H](Cc1ccccc1)NC(=O)[C@@H](NC(=O)CNC(=O)[C@H](CCC(N)=O)NC(=O)C(C)(C)NC(=O)[C@@H](N)Cc1c[nH]cn1)[C@@H](C)O)[C@@H](C)O)C(C)C)C(=O)N[C@@H](CCCCNC(=O)COCCOCCNC(=O)COCCOCCNC(=O)CC[C@H](NC(=O)CC[C@H](NC(=O)CCCCCCCCCCCCCCCCC(=O)O)C(=O)O)C(=O)O)C(=O)N[C@@H](CCCNC(=N)N)C(=O)N[C@@H](C)C(=O)N[C@@H](CCC(N)=O)C(=O)N[C@@H](CC(=O)O)C(=O)N[C@@H](Cc1ccccc1)C(=O)N[C@H](C(=O)N[C@@H](CCC(N)=O)C(=O)N[C@@H](Cc1c[nH]c2ccccc12)C(=O)N[C@@H](CC(C)C)C(=O)N[C@@H](CC(C)C)C(=O)NC(C)(C)C(=O)N[C@H](C(=O)O)[C@@H](C)O)C(C)C

molecular target: human glucagon receptor (human, UniProt P47871); experiment: cell-based or functional assay

In order of rising “cAMP production EC50” value:
1. H[Aib]QGTFTSDVSK[αMeF]LDKK([AEEA-AEEA-γGlu-C20 diacid])RAQDFVRWLLAE-NH2 [Peptide 460]  0.0665 nM
2. B3  0.0803 nM
3. B4  0.0892 nM
4. B2  0.114 nM
5. B1  0.274 nM
6. B5  0.436 nM

molecular target: human GLP-1 receptor (human, UniProt P43220); experiment: cell-based or functional assay

In order of falling “cAMP production EC50” value:
1. B5  0.485 nM
2. B1  0.173 nM
3. B3  0.133 nM
4. B2  0.127 nM
5. H[Aib]QGTFTSDVSK[αMeF]LDKK([AEEA-AEEA-γGlu-C20 diacid])RAQDFVRWLLAE-NH2 [Peptide 460]  0.117 nM
6. B4  0.0395 nM
